Results: the DeepSol protein solubility set

Assay: soluble on expression in E. coli; label from the status in PepcDB or PDB records

**Q.** With “MKRLLVFLPLLLLACAPKPEAEAPQTTAPLRVQVRTLKAEPGLLTREARASANVVAEKESLVAAGASGRVVRTLPAGTRVRAGEGVVFLDPAPFQEALAQAKLALRQAEENLARAEAQTEGNRKALEAQLAAAEAQLAAAKRRYEEGKALLALGALAPLELKGLEAQYLQAQSAYENAKEALARLEREDDLRLLRLQVEAARLQVQQAERNLKESVVRAPFAGEVVEVYVKEGEFTGAGSRAFRLATTDRLLVKVYLPPERAAALTEDTAFRVRQNGKEVEARLQAKSDLPGQNRLVEVTLRPTGPLLPGAAEVRYPEVLAEGLLLPAGAVRTEDGEAFVYVVEEGRARKRPVRLLAQEGGRAAVAGLEAGEAVVYPVPEGLEDGDLVEVVP” as the sequence, how does the “soluble on expression in E. coli” value read?
**A.** Its value is “soluble”.

**Q.** Which “soluble on expression in E. coli” value does the source give for “MGHHHHHHSHMEAPGPAQAAAAESNSREVTEDAADWAPALCPSPEARSPEAPAYRLQDCDALVTMGTGTFGRVHLVKEKTAKHFFALKVMSIPDVIRRKQEQHVHNEKSVLKEVSHPFLIRLFWTWHEERFLYMLMEYVPGGELFSYLRNRGHFSSTTGLFYSAEIICAIEYLHSKEIVYRDLKPENILLDRDGHIKLTDFGFAKKLVDRTWTLCGTPEYLAPEVIQSKGHGRAVDWWALGILIFEMLSGFPPFFDDNPFGIYQKILAGKLYFPRHLDFHVKTGRMM” here?
**A.** The value was “not soluble”.

**Q.** With “MRVREPAVAGTFYPKDKEELNKLMDLLCGFEPKEKIKPKAILVPHAGYIYSGKTACEVYKRIEIPEKVVLLGPNHTGLGKPISVYSGDAWETPYGVVEIDGELREKILKYPYANPDEYAHLYEHSLEVQLPFLQRYARREFKILPIVVTFVEYEVAKDFGRFLGEVLKEEDALIVISSDMSHYVPAEEARKKDEILISAMERLNTEELYFKAVQYNITMCGVVPAVVGIESAKVLGATKGIVVDYSNSGDTTGDYSQVVAYLGMIFLLEHHHHHH” as the sequence, how does the “soluble on expression in E. coli” value read?
**A.** The value was “not soluble”.

**Q.** With “MGGGHFAASNALKTAFLQKDPQAKVEIVDTLKIISPILDKLAVGTYLKAIKTVPFIYGLVYDSTDKDPPTRFSKAIYEKFYFAFYKLYNIISELNPDVIIGTHPSPIDMVSQLKKRGNINVPIISIVTDFTIHPYWINEYADYIIVHHENLVYEAVKKGAPGKKVIPLGIPLEHHHHHH” as the sequence, how does the “soluble on expression in E. coli” value read?
**A.** The value was “not soluble”.

**Q.** Which “soluble on expression in E. coli” value does the source give for “MGSDKIHHHHHHMKIKCIITDDEPIARKGLRGYIEKVDFLTLTGECEDAVQLNTILKTQEIDLLFLDIEMPEMTGIELLSNLTNPPKVIIVSAYEQYALKGYEFNVVDYLLKPVSFDRFIKSVNKIYDLLQTEQKEKNDYIFVKSNKLLKKILFKDILYIESMENYVVIQTVSCKEVVYTTLKQLNDSLPKDVFQQTHRSYIVNLEKVTAIDGNQLTLSSYKIPVARTFRDSIFNLILNNRLIIKS” here?
**A.** Its value is “not soluble”.

**Q.** Which “soluble on expression in E. coli” value does the source give for “MGSDKIHHHHHHREEAPNAEADILSCRLPGVVMTTSPIITNNSINIFVGPGTDISSLAPEFTLTPGATIDPPSGTARDFHSPQQYTVTAADGFWKKKYTVSVIDTELATIYNFEDTLGGQKYYIFVEREGEKVVMEWASGNAGYAMTGVPKTADDYPTFQFANGKTGKCLSLVTRSTGFFGSIMGMPIAAGNLFIGSFDVGNAMSNPLKATKFGLPFRHIPTYLAGYYKYKAGDQFTEGGKPVSGKRDICDIYAIMYETSESVPTLDGTNAFTSPNLVSIARIDDAKETDEWTYFKLPFHMLSGKYIDKEKLTAGKYNVAIVFTSSLEGDHFNGAIGSTLLIDEVELIYRSED” here?
**A.** Its value is “not soluble”.

**Q.** With “MGSDKIHHHHHHMKKVRAAIVGYGNIGHYVLEALQAAPDFEIAGVVRRAGAENKPEELANYAVVKDIKELEGVEVAILCTPTRSVEKYAKEYLAMGINTVDSFDIHTGIVDLRRTLDATAKEHKAVSIISAGWDPGSDSIVRTMLEAIAPKGITYTNFGPGMSMGHTVAVKAIDGVKAALSMTIPTGTGIHRRMVYIELKDGYKFEEVAAAIKADPYFVNDETHVKLVPSVDALLDMGHGVNLTRKGVSGKTQNQLFEFNMRINNPALTAQVLVCVARASMKQQPGCYTMVEVPVIDLLPGDREEWIGHLV” as the sequence, how does the “soluble on expression in E. coli” value read?
**A.** The value was “not soluble”.

**Q.** For “MNLMNVADKVIKSAFESDEVFQKTLSAVIKEDLNLTAVDFAKKANIPPSTLYKILSGNRDPNIKTLRQIVKTIRDIKESDSGEFIAVIAARSVLDNIVETKKKIGGRLVTIREYSATSMEDAIISAVNAERDGAKALVCAPIVGPTVEKILNIPVTTIAPKNSLIDAIERALKKME”, which “soluble on expression in E. coli” value is on record?
**A.** The value was “not soluble”.
